{"source": "paper PMC4424349", "about": "“The Plasmodium Class XIV Myosin, MyoB, Has a Distinct Subcellular Location in Invasive and Motile Stages of the Malaria Parasite and an Unusual Light Chain*” (The Journal of Biological Chemistry, 2015)", "proteins": {"B1": {"name": "Myosin B peptide Asn780 to His800 (peptide)", "peptide": "Ac-NIKNLQLAQAYFRKYKYIKEH-NH2", "notes": "Myosin B (MyoB), Plasmodium falciparum, residues 780-800; also called Asn780 to His800 peptide; peptide from the extreme C terminus of MyoB; source: synthetic peptide"}}, "molecular_target": "T1, PfMLC-B C-terminal domain (MLC-B CTD), residues 497-652 (Plasmodium falciparum, UniProt Q8III1 497-652)", "T1 construct": "Myosin light chain B (MLC-B), Plasmodium falciparum 3D7, PlasmoDB PF3D7_1118700; C-terminal 156 amino acids, residues 497-652 (3' 471 bp of mlc-b cDNA, primers 27 and 28); Cloned into BamHI/XhoI of pGEX6P1; a few vector residues may remain after PreScission cleavage; also called PfMLC-B CTD; calmodulin-like C-terminal domain; source: E. coli BL21 Gold, purified (glutathione-Sepharose, PreScission …)", "T1 sequence": "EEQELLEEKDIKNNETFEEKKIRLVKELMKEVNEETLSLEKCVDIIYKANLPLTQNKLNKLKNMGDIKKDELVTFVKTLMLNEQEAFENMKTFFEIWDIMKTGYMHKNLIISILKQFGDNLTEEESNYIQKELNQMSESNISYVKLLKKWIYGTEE", "experiment": "thermal unfolding monitored by CD at 222 nm; MLC-B CTD alone or with 1.5- or 3-fold molar excess of peptide; heating 1 °C/min, 20-90 °C", "settings": "both partners purified"}
{"protein": "B1", "values": [{"measurement": "Tm of MLC-B CTD with a 1.5-fold molar excess of the peptide (59 °C without peptide)", "result": 67, "unit": "°C"}, {"measurement": "Tm of MLC-B CTD with a 3-fold molar excess of the peptide (59 °C without peptide)", "result": 70, "unit": "°C"}]}
